In the supplement of paper PMC9170038:

Test system: K4 kissing-loop RNA reporter
Assay: apparent KD of K4 kissing-loop reporter; higher = weaker reporter binding
Conditions: Eterna round: R107
Procedure: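 RNA-MaP round R107: designed RNA switches with theophylline, tryptophan, arginine or FMN aptamers are transcribed on-chip within common flanks. They are titrated with a labelled K4 kissing-loop RNA reporter in RNA-MaP buffer (100 mM Tris pH 7.5, 80 mM KCl, 4 mM MgCl2), without ligand or with the indicated ligand. Median apparent KD per design.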

[1] = input ligand: theophylline 20 uM
[2] = input ligand: tryptophan 2.4 mM
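Also: bound reporter read as fluorescence of individual clusters on recovered sequencing chips by microscopy, with normalized cluster intensities fitted with a binding model.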

| Sequence | apparent KD of K4 kissing-loop reporter (input ligand: FMN 200 uM) | apparent KD of K4 kissing-loop reporter (input ligand: arginine 13.2 mM) | apparent KD of K4 kissing-loop reporter (input ligand: none) | apparent KD of K4 kissing-loop reporter [1] | apparent KD of K4 kissing-loop reporter [2] |
| --- | --- | --- | --- | --- | --- |
| AGUUCUUGCCGAAGGAGCGAGGCAGAGUGAUGUUCUGCACGAGGUCGAAAGACCUCGCUGCCUCAGGUAGGUCGCGGCAUGAACA [Omei KL Arginine B Exc A v2] | 897 nM | 504 nM | 1130 nM | 614 nM | 1300 nM |
| AUAAAUUUGUAGUGAUGUUGCAAGUUAGUCAAGGAUAUCAGGAAACUGAGAAGGUGAUAUCUCCUUUACUUGCAACUAGGAGGAG [KL-SSFMN-A11] | 88 nM | 87.3 nM | 91 nM | 90.8 nM | 85.7 nM |
| AUAAUAUUGCGAGGAUAUCCUUCCCACGUCGAAGUACCGUGCUUGAUGGAGUGAUGUUCGAUCAGAGGAGAAGGCGCGGUGUUGU [Same State FMN B GF23] | 734 nM | 543 nM | 656 nM | 611 nM | 571 nM |
| AUACCUCUACGAGUGAUGUUUGUUGAGGAUACCAGCAUGUAUAGUUGCCCUUGGCAGCCUUGGCUCGUGCGCUCCCUCCGAACCG [theeternabot_exclusion_KL_Theo_A_30] | 296 nM | 240 nM | 291 nM | 277 nM | 247 nM |
| AUACGUUUAAGUGAUACCAGACAUGUGAGUGAUGUUUACAUAUAUAUUUAAUAUUUAGCUGUCCCUUGGCAGCACAGUUUAUUUA [JR_ExcTheophyB_Sub001] | 350 nM | 374 nM | 441 nM | 399 nM | 308 nM |
| AUAGAAAAGUGGCACCCUCACUAAAACAGUCGAGGACCGGUACGGCCGCCACUCGCGCGCUUUAGUGAUGUUAAAGCUAGGCGGA | 269 nM | 228 nM | 265 nM | 259 nM | 245 nM |
| AUAGCACCUUAUGAUACCAGACGAGUGAUGUUCUGUGGUGUCGUCACAAGGCAAUCGACUGUCCCUUGGCAGCAUCAUUCUAUAU [theeternabot_exclusion_KL_Theo_B_31] | 563 nM | 531 nM | 453 nM | 722 nM | 730 nM |
| AUAUCUAGAGUGAUGUUCUAGUAAGCUGAAGGAGCGGACGAAAGUCCAGGUAGGUCGCAGUGUUUUUACACCUCAUGUGUAGGAG [KL-SSArg-A7 #analogue] | 118 nM | 128 nM | 107 nM | 163 nM | 130 nM |
| AUAUCUGUUCGAAAGAACGGAUCUUCGGAAGGAGCGCGUGAAAACGCAGGUAGGUCGCCGAAGUUAUUAGGUAGUGAUGUUACCU [Arginine A K4 7] | 129 nM | 96.4 nM | 113 nM | 101 nM | 109 nM |
| AUAUGCAGGAGAAGGAGCGUCGUUGCAAGUGAUGUUUGCAAGCGAGCUUACUAUAUACGACGACAGGUAGGUCGCUCCUGCGUAA [Arg B Ex t2] | 68.8 nM | 61.7 nM | 64.8 nM | 58.1 nM | 67.2 nM |
| AUCGUUGCCAUUAGGACAUACGGUCCUGAACGAGGACCGGUACGGCCGCCACUCGAGCACACGAGUGAUGUUCGUGGGCAACGAU [Tryp A SS t1] | 131 nM | 107 nM | 137 nM | 136 nM | 358 nM |
| AUCUUGUUUGGAGGAUAUUCUUUAUUCGACAUAACCUUCUAUAAGGUGCAGUGAUGUUGCAAUAUAGGAGAAGGUCGAGUGAGAU [Exclusion FMN B GF 17] | 239 nM | 174 nM | 188 nM | 166 nM | 188 nM |
| AUGCAUCAGACUUGAUACGGUGAAAUAGCCCGAGGACCGGUACGGCCGCCACUCGGUCCAGUGAUGUUGGAUAAUUAAUCUAGGU [theeternabot_sameState_KL_Trp_A_34] | 197 nM | 256 nM | 297 nM | 294 nM | 82.4 nM |
| AUGUAUGAAUUAGGAUAUCGUGAUCCAUGCAUAUAUAUGAUAAAUGGAUAUGUCGUAGUGAUGUUACGAGAAGGAGUGUGGAGUA [KL-XFMN-B1] | 62.6 nM | 71.5 nM | 64.3 nM | 93 nM | 45 nM |
| AUGUCUGAUAGCAGUGAUGUUGCUUCAGAUACCAGACGAGAUCAUGUCCCUUGGCAGCUGACACGGCACGUGCUAGGUUAGAUGA [whbob_Ex_Theo_A_th71] | 117 nM | 94.4 nM | 118 nM | 102 nM | 102 nM |
| AUUAAUAUCACGGCCGCCACUGUAUAUUGUUUUUAUAUUUAGAAUAAUUGCCAGUGAUGUUGGAACAGGACCGGGUGAGUUUAUA [#28 K4 Tryptophan B Same State] | 511 nM | 434 nM | 626 nM | 402 nM | 323 nM |
| AUUAAUUUCAGAGGAUAUGCUUUAUUAUUAUUUUUAAAUAAUAAAUGCAGUGAUGUUGCUUAUUAUGCAGAAGGCUGAUUUAUAA [JR_SSFMNB_Sub014] | 119 nM | 625 nM | 603 nM | 586 nM | 545 nM |
| AUUAUAAAGUCGGCCGCCACUGAGAGUAGUGAUGUUACUCUAUUCCUUUACAUAUUAUAGUUUAUCAGGACCGGGACAUCAGAUU [JR_ExcTryptoB_Sub018] | 268 nM | 214 nM | 279 nM | 246 nM | 199 nM |
| AUUAUAUAAUGGAGUGAUGUUCCAUCAGAUACCAGUGAAUUUGAACACCCUUGGCAGCUGUUGUUCAAAUAAUUUAAAUCCUUUA [JR_SSTheophyA_Sub019] | 129 nM | 150 nM | 132 nM | 166 nM | 103 nM |
| AUUCGUUUAUGUGAUACCAGACUUUGCAGUGAUGUUGCAUUAAUUUUUGAUUAUUAGUUUGUCCCUUGGCAGCACUAUUUAUUUA [JR_SSTheophyB_Sub004] | 40.2 nM | 81.5 nM | 44.8 nM | 80.1 nM | 36.6 nM |
| AUUCUGUUUUUAAUGUUUAUUGUAUAAUGGCAGGAUAUCGUAGAAGCGAGAAGGGCUUUUAUGCGUUAUGAGUGAUGUUUGUAGG [dhhyfvmullin] | 364 nM | 247 nM | 267 nM | 410 nM | 270 nM |
| AUUUAAUUAACUGAUACCAGACUUUUUGUUUUGUUUAUUACUAGUGAUGUUAGUGUUUCUGUCCCUUGGCAGCAGUAUCUACUUA [JR_ExcTheophyB_Sub015] | 134 nM | 202 nM | 131 nM | 239 nM | 122 nM |

| Sequence | apparent KD of K4 kissing-loop reporter (input ligand: FMN 200 uM) | apparent KD of K4 kissing-loop reporter (input ligand: arginine 13.2 mM) | apparent KD of K4 kissing-loop reporter (input ligand: none) | apparent KD of K4 kissing-loop reporter [1] | apparent KD of K4 kissing-loop reporter [2] |
| --- | --- | --- | --- | --- | --- |
| AUUUAGACGAGUGAUGUUCGUGUUAUUACAGAGGAUAUGCGUAAUUGCAGAAGGCUGUAUUUAUAUAUGUUAUGUAAUUUUAAAA [JR_ExcFMNA_Sub007] | 89.5 nM | 108 nM | 88 nM | 99.4 nM | 73.2 nM |
| AUUUGUUACCUUAUAGGAGUGAUGUUCUUGCGAGGACCGGUACGGCCGCCACUCGCGCUGGCGCCUAGCCUCGGACCGUUAAUUC [theeternabot_exclusion_KL_Trp_A_25] | 582 nM | 325 nM | 635 nM | 497 nM | 431 nM |
| AUUUUAUUAACUGAUACCAGACUUAAUGAUUUGUAAAUUACUAGUGAUGUUAGUGAUUCUGUCCCUUGGCAGCAGUAUUUAUUUA [JR_ExcTheophyB_Sub013] | 76.2 nM | 85.6 nM | 79.2 nM | 87.6 nM | 69.4 nM |
| AUUUUCAUUUUAUUAUAUAACUUUUCAGAAGGAGCGUGGAAGUUCACAGGUAGGUCGCUGAAUAUUGGACUAGUGAUGUUAGUUA [JR_Nu_SSArginiA_Sub022] | 202 nM | 244 nM | 230 nM | 259 nM | 207 nM |
| AUUUUGGUUUAGAGUGAUGUUCCUUGUAUUCGAGGACCGGUACGGCCGCCACUCGAAUAGAAAAGAAAAGAAAUGUGUGAUGUUU [BDazzled - #5 SS Tryptophan A] | 772 nM | 611 nM | 900 nM | 764 nM | 567 nM |
| AUUUUGGUUUAGAGUGAUGUUCCUUGUAUUCGAGGACCGGUACGGCCGCCACUCGGGUAGAAAAGAAAAGAAAUGUUUGAUUUUU [BDazzled - #9 SS Tryptophan A] | 282 nM | 102 nM | 210 nM | 222 nM | 290 nM |
| AUUUUUUUAUCAGGAUAUUAGUGUUGGUUUGUUUUGUUAGUGAUGUUGAUAUUUGUUUUAUGUAUUUAAGAAGGGAUUUAGAUGU [viuupullin] | 270 nM | 243 nM | 270 nM | 371 nM | 194 nM |
| AUUUUUUUGUCAGGAUAUUAGUGUUGGUUUGGUUUGUUAGUGAUGUUGAUAUUUGUUUUAUGUAUUUAAGAAGGGAUUUAGCUGU [ppdemullin] | 391 nM | 359 nM | 346 nM | 427 nM | 278 nM |
| CAACAUCACAACUUCUUCGUCCUAGAAGACUAGGAUAUCAGGAAACUGAGAAGGAGUCUCUGCAGUGAUGUUGCAGCUAGGACGA [[K]'-[F2]'-[F1]'-[F1]-[F2]-[K1]-[K2]-[F]''_Design2b] | 231 nM | 216 nM | 185 nM | 266 nM | 219 nM |
| CACCAUGAAUUCUCUAGGAGUGAUGUUUUUCGAGGACCGGUACGGCCGCCACUCGGACGAGGAACGUGGGAGCGGCGAAAAGACU [xzzmullin] | 70.6 nM | 64 nM | 285 nM | 83.9 nM | 121 nM |
| CACCAUGAAUUCUCUAGGAGUGAUGUUUUUCGAGGACCGGUACGGCCGCCACUCGGACGAGGACCGUGGGAGCGGCGAAGCGACU [wwegmullin] | 234 nM | 148 nM | 109 nM | 1070 nM | 101 nM |
| CACUCGGUAUCAGAUACCAGACUAACGAUACCGAGUGUAUCGGGUAGUGAUGUUACCAUAGUCCCUUGGCAGCUGAUAUUCCCUA [Theo B SS t9a] | 252 nM | 203 nM | 258 nM | 210 nM | 199 nM |
| CAUACGAAGCAGUGAUGUUGCUUAUGAGAAGGAGCGCACGAAAGUGCAGGUAGGUCGCUCAGCCAUGUGGACGAAAACGUCCACA [whbob_SS_Arginine_A_sa112] | 266 nM | 273 nM | 276 nM | 265 nM | 269 nM |
| CAUACGCAUGGAGGAUAUGAGAUUACUCAUAUUACCCUGUAACAGGUAUCUCAGUGAUGUUGAGACUCAGAAGGCCAUGUGUAUG [Ex FMN B 22] | 713 nM | 354 nM | 415 nM | 435 nM | 387 nM |
| CAUACGCAUGGAGGAUAUGAGAUUUCUCAUAUUAUUUAAUAUUCUCAGUGAUGUUGAGAAAUAAACUCAGAAGGCCAUGUGUAUG [Ex FMN B 3] | 256 nM | 365 nM | 313 nM | 405 nM | 304 nM |
| CAUGGAGUGAUGCUCCAUGGUCGGGCUUGGCAGGAUAUGGGAUCUUCCAGAAGGGCCGAUCCCGGCGAGUGAUGUUCGCUGGUCU [Exclusion FMN A GF 28] | 167 nM | 332 nM | 316 nM | 433 nM | 271 nM |
| CAUUCGAAAUGCAGUGAUGUUGCAACCGAUACCAGUAUCGAAAGAUACCCUUGGCAGCGGAAAACCGCUACGUAUUUUUUGAAUG [Ex Theophylline A K4 26] | 204 nM | 288 nM | 276 nM | 243 nM | 237 nM |
| CAUUCGAAAUGCAGUGAUGUUGCAACUGAUACCAGUAUCGAAAGAUACCCUUGGCAGCGGAAAACCGCUACGUUUUUUUUGAAUG [Ex Theophylline A K4 24] | 191 nM | 312 nM | 312 nM | 357 nM | 176 nM |
| CCAACGUGAAAAGGAUAUCGCGAUGUGCACGACUAGUGAUGUUAGGAGAGGCUCGUUGAAUUGUACCGAGAAGGUUUUGAGUGGG [theeternabot_sameState_KL_FMN_B_16] | 227 nM | 160 nM | 240 nM | 231 nM | 196 nM |
| CCAUCGCUAUUCGAUACCAGUCAAGAGGUCUUUGGCCUCUUAAUGGAGUGAUGUUCCUUAGACCCUUGGCAGCGAAUAGUGAUGG [Theophylline B K4 13] | 266 nM | 127 nM | 237 nM | 340 nM | 124 nM |
| CCAUCGCUAUUCGAUACCAGUCAUUUUUUAUUUUUUUUUUUUUUUGGAGUGAUGUUCCAAGACCCUUGGCAGCGAAUAGUGAUGG [whbob_SS_Theo_B_th77] | 91.3 nM | 109 nM | 76.3 nM | 114 nM | 68.1 nM |
